Test results as given in US20160264664A1.
“And” between values parts separate entries of the source, which are not always exact repeats. Identical values can stand only once.

Legend:
[1] = biological target: human chemokine receptor CXCR4 (human) (UniProt P61073); experiment: flow cytometry, stable CXCR4 CAKI clone vs CAKI WT cells
[2] = biological target: human chemokine receptor CXCR4 (human) (UniProt P61073); experiment: flow cytometry, pVAX1-hCXCR4 transfected HEK293 vs non-transfected HEK293 cells
[3] = biological target: human chemokine receptor CXCR4 (human) (UniProt P61073); experiment: flow cytometry, 12G5 then PE goat anti-mouse IgG, on the stable CAKI/CXCR4 clone; the control panel CAKI WT prints MCF:1089
[4] = biological target: human chemokine receptor CXCR4 (human) (UniProt P61073); experiment: flow cytometry, 12G5 then PE goat anti-mouse IgG, on HEK293 cells transiently transfected with pVAX1-CXCR4; the control panel HEK293 WT prints MCF:3918
mouse P2X7 (mouse) [5] = biological target: T1, mouse P2X7 (mouse) (UniProt Q9Z1M0); experiment: cell-based or functional assay
T1 sequence: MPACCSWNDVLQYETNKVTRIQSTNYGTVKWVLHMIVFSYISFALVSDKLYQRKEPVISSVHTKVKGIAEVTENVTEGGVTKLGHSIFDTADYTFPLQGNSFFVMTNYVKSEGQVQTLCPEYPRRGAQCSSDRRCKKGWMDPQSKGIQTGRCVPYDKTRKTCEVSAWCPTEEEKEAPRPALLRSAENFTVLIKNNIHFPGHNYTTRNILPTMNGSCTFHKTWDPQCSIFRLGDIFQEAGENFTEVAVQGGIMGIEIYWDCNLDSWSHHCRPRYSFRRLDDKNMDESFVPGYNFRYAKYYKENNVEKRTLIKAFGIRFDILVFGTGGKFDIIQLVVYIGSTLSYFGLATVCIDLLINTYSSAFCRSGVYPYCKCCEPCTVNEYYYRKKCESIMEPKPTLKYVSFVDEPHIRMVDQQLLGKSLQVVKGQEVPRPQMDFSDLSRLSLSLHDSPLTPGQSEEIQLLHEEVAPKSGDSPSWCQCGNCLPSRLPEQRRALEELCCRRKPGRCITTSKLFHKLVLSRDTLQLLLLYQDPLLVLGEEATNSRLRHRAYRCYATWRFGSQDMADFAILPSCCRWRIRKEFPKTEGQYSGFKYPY

mouse P2X7 (mouse) [6] = biological target: T1, mouse P2X7 (mouse); experiment: flow cytometry, purified Nanobody titrated on mP2X7-CHO cells
[7] = biological target: human chemokine receptor CXCR4 (human) (UniProt P61073); experiment: ELISA, periplasmic extract on CXCR4 membrane vesicles, anti-Myc detection

Sequence of human chemokine receptor CXCR4 (human) (P61073 whole entry): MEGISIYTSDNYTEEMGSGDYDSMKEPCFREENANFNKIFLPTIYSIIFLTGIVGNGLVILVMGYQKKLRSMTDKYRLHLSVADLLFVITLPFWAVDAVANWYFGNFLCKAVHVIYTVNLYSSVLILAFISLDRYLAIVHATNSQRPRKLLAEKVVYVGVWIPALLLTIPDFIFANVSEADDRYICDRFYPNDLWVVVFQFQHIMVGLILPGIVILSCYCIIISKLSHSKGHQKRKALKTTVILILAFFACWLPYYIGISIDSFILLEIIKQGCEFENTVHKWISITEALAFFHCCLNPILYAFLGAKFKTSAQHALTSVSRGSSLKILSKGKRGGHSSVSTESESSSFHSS

Substance	fluorescence shift over non-transfected camelid cells [1] [fold]	fluorescence intensity shift of transfected over non-transfected cells [2] [fold]	MCF [3]	MCF [4]	percentage of cells remaining CD62L positive after ATP or NAD (Yac-1 cells, control) (mouse P2X7 (mouse) [5])	maximum MCF value (mouse P2X7 (mouse) [6]) [MCF]	ELISA signal on hCXCR4 membrane vesicles over control membrane vesicles [7]
Human CXCR4 specific monoclonal antibody 12G5 (R&D Systems MAB170)	114	38	125000	152000			
irrelevant control Nanobody (VHH)					2% and 20%	314 to 355	1.1
